Measurements taken from PMC8374900 (ACS Omega, 2021).

Biological target: the molecule itself
Test: AUC

B1: endo_N-BAR L187C (C108A) labeled with A488 (domain or fragment, rat, UniProt O35179 1-247, looked up)
chain: MSVAGLKKQFHKATQKVSEKVGGAEGTKLDDDFKEMERKVDVTSRAVMEIMTKTIEYLQPNPASRAKLSMINTMSKIRGQEKGPGYPQAEALLAEAMLKFGRELGDDANFGPALGEVGEAMRELSEVKDSLDMEVKQNFIDPLQNLHDKDLREIQHHLKKLEGRRLDFDYKKKRQGKIPDEELRQACEKFDESKEIAESSMFNLLEMDIEQVSQLSALVQAQLEYHKQAVQILQQVTVRLEERIRQA
modifications: Alexa Fluor 488 C5-maleimide on the introduced Cys 187
  stoichiometry N: 2
